Like-named read-outs stand apart in the source and are kept apart here. Bounds are passed on as bounds.

Experiment [1] has as its target T1, recombinant full-length His-tagged human TDP-43 (2-414) (human, UniProt Q13148 2-414).
T1 construct: Amino terminal His tag, made in E. coli, purified in 8 M urea; also called full length TDP-43; full-length TDP-43
In words: direct ELISA, coated antigen. Here is the method: (§1) The half maximal effective concentration (EC₅₀) of the human-derived TDP-43-specific antibodies for human TDP-43 and their target target-specificity was determined substantially as described in Example 2 above. Briefly, 96 well microplates (Corning) were coated with recombinant full length TDP-43 (Biogen Idec, USA), Escherichia coli extract and BSA (Sigma, Buchs, Switzerland), diluted to a concentration of 5 μg/ml in carbonate ELISA coating buffer (pH 9.6) overnight at 4° C. […] Non-specific binding sites were blocked for 1 hr. at room temperature with PBS containing 2% BSA (Sigma, Buchs, Switzerland). Human TDP-43-specific antibodies were diluted to the indicated concentrations and incubated 1 hr. at room temperature. Binding was determined using a donkey anti-human IgGγ-specific secondary antibody conjugated with HRP (Jackson ImmunoResearch, USA), followed by measurement of HRP activity in a standard colorimetric assay. EC₅₀ values were estimated by a non-linear regression using GraphPad Prism software (San Diego, USA).

Experiment [2] addresses T2, His-huTDP-43 domain II (amino acid residues 99-204) (human).
T2 construct: Amino terminal His-tagged fragment, E. coli
T2 chain: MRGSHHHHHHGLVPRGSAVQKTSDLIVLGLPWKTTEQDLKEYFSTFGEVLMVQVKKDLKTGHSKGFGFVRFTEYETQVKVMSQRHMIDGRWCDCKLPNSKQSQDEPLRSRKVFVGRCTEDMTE
In words: Western blot. Here is the method:
(§2) Non-specific binding sites were blocked for 1 hr. at room temperature with PBST containing 2% BSA (Sigma, Buchs, Switzerland). Blots were incubated overnight with primary antibodies (10 nM) followed by either a donkey anti-human IgGγ-specific secondary antibody conjugated with HRP (Jackson ImmunoResearch, USA) or a goat-anti mouse IgG (H+L)-specific secondary antibody conjugated with HRP (Jackson ImmunoResearch, USA). Blots were developed using ECL and ImageQuant 350 detection (GE Healthcare, Otelfingen, Switzerland).
(§3) Commercially available TDP-43 specific antibody TARDBP (M01), clone 2E2-D3 (Abnova, Taiwan) was used as positive control for human TDP-43 detection whereas, an anti-human IgG Fcγ-specific antibody was used as a negative control. Binding of the human-derived antibodies to specific TDP-43 domains was determined by Western Blot analysis.

The target in experiment [3] is T3, His-huTDP-43 domain I (amino acid residues 2-106) (human).
T3 construct: Amino terminal His-tagged fragment, E. coli; also called N-terminal domain
T3 chain: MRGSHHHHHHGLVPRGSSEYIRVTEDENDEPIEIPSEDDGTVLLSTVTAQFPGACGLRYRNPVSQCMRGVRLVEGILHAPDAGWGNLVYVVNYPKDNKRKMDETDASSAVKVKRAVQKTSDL
The experiment in a line: direct ELISA, His-tagged TDP-43 fragments coated at 6.6 ug/ml, OD 450. How it is done: (§4) Non-specific binding sites were blocked for 1 hr. at room temperature with PBST containing 2% BSA (Sigma, Buchs, Switzerland). Antibodies were incubated 1 hr. at room temperature. Binding was determined using either a donkey anti-human IgGγ-specific antibody conjugated with HRP (Jackson ImmunoResearch, USA) or a goat-anti mouse IgG (H+L)-specific secondary antibody conjugated with HRP (Jackson ImmunoResearch, USA)., followed by measurement of HRP activity in a standard colorimetric assay.
For orientation: An ELISA detects its analyte on a solid surface through an enzyme-linked reagent.

Experiment [4] has as its target T4, His-huTDP-43 domain IV (amino acid residues 258-414) (human, UniProt Q13148 258-414).
T4 construct: Amino terminal His-tagged fragment, E. coli, solubilized in 8 M urea; also called Glycine-rich domain
The description is as above. Here is the method: as §4

The target in experiment [5] is T5, His-huTDP-43 domain III (amino acid residues 183-273) (human).
T5 construct: Amino terminal His-tagged fragment, E. coli
T5 chain: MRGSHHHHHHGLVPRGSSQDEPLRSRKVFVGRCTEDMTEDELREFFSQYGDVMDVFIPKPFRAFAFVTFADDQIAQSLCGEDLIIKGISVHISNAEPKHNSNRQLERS
The experiment is described as above. How it is done: as §4

The target in experiment [6] is T6, 6xHis-SUMO-TDP-43 (1-414), properly folded full length (human, UniProt Q13148 1-414).
T6 construct: Purified with KSCN and arginine, monomeric; captured on the plate by an anti-6xHis antibody; also called folded full-length TDP-43; 6xHis/SUMO tagged full length TDP-43; not shown: N-terminal 6xHis and SUMO tags from a modified pET19-b vector
T6 sequence (Q13148 whole entry): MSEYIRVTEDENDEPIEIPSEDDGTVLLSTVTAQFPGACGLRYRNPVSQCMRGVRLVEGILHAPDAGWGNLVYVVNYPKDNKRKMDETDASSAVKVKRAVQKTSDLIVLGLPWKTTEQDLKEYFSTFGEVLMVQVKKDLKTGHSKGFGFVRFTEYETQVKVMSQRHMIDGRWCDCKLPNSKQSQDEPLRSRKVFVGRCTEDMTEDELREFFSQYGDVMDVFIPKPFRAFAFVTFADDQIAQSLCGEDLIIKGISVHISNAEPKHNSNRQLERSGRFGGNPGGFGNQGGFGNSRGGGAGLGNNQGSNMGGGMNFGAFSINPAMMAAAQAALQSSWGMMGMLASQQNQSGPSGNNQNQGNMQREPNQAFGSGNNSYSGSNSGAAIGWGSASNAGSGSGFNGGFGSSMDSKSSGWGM
In words: capture ELISA, antigen held by anti-6xHis antibody. Here is the method:
(§5) Non-specific binding sites were blocked for 1 hr at RT with PBS containing 1% BSA (Sigma) and 0.05% Tween-20 (Fisher Scientific). 6×His-SUMO-TDP43 proteins at a concentration of 1.7 μM were allowed to bind to antibody-coated plates for 1 hr at RT in PBS buffer containing 1% BSA, 300 mM arginine and 0.1% PEG 5000, pH 7.5. Plates were incubated for 1 hr at RT with human antibodies of present invention, titrated in a three-fold dilution series, followed by HRP conjugated anti-human IgG Fc γ (Jackson ImmunoResearch) in PBST containing 1% BSA. HRP activity was measured in a standard colorimetric assay. EC₅₀ values were calculated using a four-parameter logistic curve fit on Softmax pro software (Molecular Devices).
(§6) We measured the binding affinity of the human-derived TDP-43 specific antibodies provided herein to properly folded 6×His/SUMO tagged TDP-43 using a capture ELISA in which native TDP-43 was immobilized without direct adsorption on the surface of the ELISA plate. This was achieved by immobilizing an anti 6×His antibody which then captured native TDP-43. […] After this immobilization step, binding by human antibodies was tested in regular buffers without interference of TDP-43 aggregation.

Experiment [7] addresses T7, 6xHis-SUMO-TDP-43 (220-414) (human, UniProt Q13148 220-414).
T7 construct: Captured on the plate by an anti-6xHis antibody; also called 6xHis/SUMO tagged truncated TDP-43; not shown: N-terminal 6xHis and SUMO tags from a modified pET19-b vector
In words: capture ELISA, antigen held by anti-6xHis antibody. Here is the method:
as §5, §6

The target of experiment [8] is T1, recombinant full-length His-tagged …. In words: direct ELISA, coated antigen. How it is done:
as §1
This is another data set of the same source.

The target of experiment [9] is T5, His-huTDP-43 domain III (amino acid …). In words: Western blot. Here is the method:
as §2, §3
Background: Immunoblotting shows a protein as a band on a membrane.

For experiment [10], the target named is T2, His-huTDP-43 domain II (amino acid …). In words: direct ELISA, His-tagged TDP-43 fragments coated at 6.6 ug/ml, OD 450. Here is the method: as §4

T7 sequence (Q13148 220-414): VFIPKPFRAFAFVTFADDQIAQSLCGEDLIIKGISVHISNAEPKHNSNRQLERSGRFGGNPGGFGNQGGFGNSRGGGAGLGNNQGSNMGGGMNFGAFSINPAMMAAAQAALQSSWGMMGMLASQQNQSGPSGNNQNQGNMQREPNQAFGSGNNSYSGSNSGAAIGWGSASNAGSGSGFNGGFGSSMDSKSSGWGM
T4 sequence (Q13148 other isoform, or with tags, fused parts or gaps limits assumed): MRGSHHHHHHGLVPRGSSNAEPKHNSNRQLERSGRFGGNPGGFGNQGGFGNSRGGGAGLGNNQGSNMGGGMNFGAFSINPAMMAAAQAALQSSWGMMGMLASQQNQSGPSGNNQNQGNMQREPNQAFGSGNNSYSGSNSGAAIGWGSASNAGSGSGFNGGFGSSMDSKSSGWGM

B1: NI-205.21G2 (antibody, human IgG1, V domains shown)
VH: QVQLVQSGAEVKKPGASVKVSCKTSGYSFTSYTLHWVRQAPGHRPEWMGWINAAFINTKYSQKFQGRITLTRDTSANIAYLELRSLTTEDTAVYYCARRASGSNGLDVWGQGTTVTVSS
VL: DIQMTQSPSSLSASVGDRITITCQASRDITNYLNWYQQKPGKAPKLLIYDASYLETGVPSTFSGSGSGTHFTLTISSLQPDDFATYYCQQYDSVPLTFGGGTKVEIK
notes: Human-derived
Consider B1, for which the EC50 – broadly, the concentration giving half of the maximal effect – in experiment [1] was determined as 0.24 nM; in experiment [6], 3.6 nM; in experiment [8], 0.24 nM. Besides, the binding result in [2] was “binds”; in [3], “no binding”; in [4] it was “no binding”; in experiment [5], “no binding”; in [7] it was “no binding”.

B2: NI-205.51C1 (antibody, human IgG1, V domains shown)
VH: EVQLVESGGGLVQPGGSLRISCTTSGFIFSDYWMHWVRQAPGKGLTWVSRINLDGSDTIYADSVKGRFTISRDNDKNTLYLQMNSLRVEDTAIYYCARSRKSVWGQGTMVTVSS
VL: QSALTQPASVSGSPGQSITISCTGSNTDVGAYDYVSWSQQLPGKAPKFVIFDVDVRPSGISDRFSGSKSGNTASLTISGLQAEDEADYYCSSYTKSGTLVFGGGTKVTVV
notes: Human-derived
For B2, the EC50 in experiment [1] was 0.18 nM; in experiment [6], 1.1 nM; in experiment [8], 0.18 nM. In addition, the binding result is on record as “binds” in [9]; “no binding” in experiment [3]; “no binding” in experiment [4]; “no binding” in experiment [10]; “no binding” in experiment [7].

B3: NI-205.3F10 (antibody, human IgG1, V domains shown)
VH: EVQLLESGGDLVQPGGSLRLSCAASGFTFSSQAMSWVRQAPGKGLEWVSALSRTGDYTWYADSVRGRFTVSRDDSKNIFYLEMNSLRAEDTAVYYCAKNYYSSFGYNWAAFHIWGQGTMVTVSS
VL: EIVLTQSPGTLSLSPGERATLSCRASQDVNNNYLAWYQQKPGQAPRLLIYGASRRATGVPDRFSGRGSGTDFTLTINRLEPEDFAMYFCQQYGGSPPYTFGQGTKLEIK
notes: Human-derived
B3: the results for the 50% effective concentration (EC50) in experiment [1], in [6] and in experiment [8] were 1.4 nM, more than 90 nM and 1.4 to 2.8 nM, respectively. Also, the binding result is on record as “binds” in [9]; “no binding” in experiment [3]; “no binding” in experiment [4]; “no binding” in [10]; “no binding” in experiment [7].

These data come from patent publication US20170152308A1 (Biogen, published 2017).
